The values below come from paper doi:10.1101/2020.12.22.424058, “Structural basis for the dimerization-dependent CRISPR-Cas12f nuclease” (bioRxiv, 2020).

Series [1] deals with the molecule itself. Kind of series: cryo-EM structure; Cas12f D510A with sgRNA (222 nt) and target dsDNA (60 bp, TTTA PAM) at 1:1.2:1.3, 37°C, then SEC (Superdex 200) in 25 mM Tris-HCl pH 7.6, 150 mM NaCl, 2 mM DTT, 1 mM MgCl2; ternary complex, 3.1 Å; the two Cas12f copies are bound to one sgRNA.
Series [2] deals with the molecule itself. Kind of series: cryo-EM structure; Cas12f with sgRNA at 1:1.2, 37°C for 30 min in 25 mM Tris-HCl pH 7.6, 150 mM NaCl, 2 mM DTT, 1 mM MgCl2; binary complex, 3.9 Å; the two Cas12f copies are bound to one sgRNA.

B1: Un1Cas12f1^D510A (enzyme, UniProt A0A482D308 1-529, looked up)
chain: MAKNTITKTLKLRIVRPYNSAEVEKIVADEKNNREKIALEKNKDKVKEACSKHLKVAAYCTTQVERNACLFCKARKLDDKFYQKLRGQFPDAVFWQEISEIFRQLQKQAAEIYNQSLIELYYEIFIKGKGIANASSVEHYLSDVCYTRAAELFKNAAIASGLRSKIKSNFRLKELKNMKSGLPTTKSDNFPIPLVKQKGGQYTGFEISNHNSDFIIKIPFGRWQVKKEIDKYRPWEKFDFEQVQKSPKPISLLLSTQRRKRNKGWSKDEGTEAEIKKVMNGDYQTSYIEVKRGSKIGEKSAWMLNLSIDVPKIDKGVDPSIIGGIDVGVKSPLVCAINNAFSRYSISDNDLFHFNKKMFARRRILLKKNRHKRAGHGAKNKLKPITILTEKSERFRKKLIERWACEIADFFIKNKVGTVQMENLESMKRKEDSYFNIRLRGFWPYAEMQNKIEFKLKQYGIEIRKVAPNNTSKTCSKCGHLNNYFNFEYRKKNKFPHFKCEKCNFKENAAYNAALNISNPKLKSTKEEP
notes: Cas12f (UnCas12f1, Un1Cas12f1; also known as Cas14), 529 amino acids, 61.5 kDa; plasmid Addgene #112500; Two copies (Cas12f.1 and Cas12f.2) stand in the complex with one sgRNA and the target dsDNA; The model lacks three N-terminal and four C-terminal residues; also called Cas12f D510A mutant; source: E. coli BL21(DE3), purified (Ni-NTA, HiTrap SP HP, Superdex 200); not shown: 10xHis, N-terminal, …
On to B1, for which, in series [1], the “stoichiometry N” value came to 2.

B2: Cas12f (UnCas12f1) (enzyme, UniProt A0A482D308 1-529, looked up)
chain: MAKNTITKTLKLRIVRPYNSAEVEKIVADEKNNREKIALEKNKDKVKEACSKHLKVAAYCTTQVERNACLFCKARKLDDKFYQKLRGQFPDAVFWQEISEIFRQLQKQAAEIYNQSLIELYYEIFIKGKGIANASSVEHYLSDVCYTRAAELFKNAAIASGLRSKIKSNFRLKELKNMKSGLPTTKSDNFPIPLVKQKGGQYTGFEISNHNSDFIIKIPFGRWQVKKEIDKYRPWEKFDFEQVQKSPKPISLLLSTQRRKRNKGWSKDEGTEAEIKKVMNGDYQTSYIEVKRGSKIGEKSAWMLNLSIDVPKIDKGVDPSIIGGIDVGVKSPLVCAINNAFSRYSISDNDLFHFNKKMFARRRILLKKNRHKRAGHGAKNKLKPITILTEKSERFRKKLIERWACEIADFFIKNKVGTVQMENLESMKRKEDSYFNIRLRGFWPYAEMQNKIEFKLKQYGIEIRKVAPNNTSKTCSKCGHLNNYFNFEYRKKNKFPHFKCEKCNFKENADYNAALNISNPKLKSTKEEP
notes: Cas12f (UnCas12f1, Un1Cas12f1; also known as Cas14), 529 amino acids, 61.5 kDa; plasmid Addgene #112500; The methods say only 'Cas12f proteins' for the binary complex with sgRNA; also called Un1Cas12f1; Cas14; source: E. coli BL21(DE3), purified (Ni-NTA, HiTrap SP HP, Superdex 200); not shown: 10xHis, N-terminal, cleaved; MBP, N-terminal, cleaved
For B2, in series [2], the binding result is “binds”.

What is called stoichiometry N is a count of units in the complex or per binding partner.
